In patent US9308238B2, “Compositions and methods for modulating EMT and uses thereof” (Whitehead Institute for Biomedical Research, priority 2010, dated 2016):

Legend:
Format in all cases: cell-based, human
HMLE^24+ cells = test: Boyden chamber migration assay, HMLE^24+ cells
Procedure: FIGS. 3A-3E. Autocrine Signaling controls migration and mammosphere formation.
(§1) FIGS. 5A-5H. Concomitant stimulation of Wnt and TGF-beta pathways allows HMLE^24+ cells to enter into a mesenchymal and SC-like state. (FIG. 5A) RT-PCR: N-Cadherin, Zeb1 and Zeb2, L32 was loading control, n=3. Prior RNA isolation, HMLE^24+-shGFP or -shSFRP1 (stable knockdown of SFRP1, FIG. 12A) cells were treated for 3 days with daily doses of indicated factors: anti-DKK1 antibody (10 μg/ml), anti-E-Cadherin antibody (1 μg/ml), TGF-beta 1 (5 ng/ml), Wnt5a (250 ng/ml), (FIG. 5B) Brightfield microscopy: images of control, TGF-beta- and iEMT-cocktail treated HMLE^24+ cells after 14 days of treatment as indicated (see also FIG. 12D). (FIG. 5C) RT-PCR: Zeb1, Zeb2, E-Cadherin and N-Cadherin, L32 was loading control, n=3. After 14 day treatment, cells were expanded in absence of further stimulation for 4 passages. Shown are PBS-treated control HMLE^24+-shGFP and HMLE^24+-shSFRP1 cells, two HMLE^24+-shGFP cultures treated with TGF-beta 1 (TGF-β-a and -b), two HMLE^24+-shSFRP1 cultures treated with the iEMT-cocktail (iEMT-a and -b). (FIG. 5D) Immunoblot: EMT markers and associated autocrine pathways, cells generated as described in (C). (FIG. 5E) Migration (Boyden Chamber Assay) and Mammosphere Assay: cells generated as indicated in (C), *control vs. TGF-beta treatment, p<1×10^−4, **control vs. iEMT-treatment, p<1×10^−9, n(migration)=3, n(mammospheres)/1000 cells, n=7. (FIG. 5F) Flow cytometry: CD44 and CD24 cell-surface marker expression in control, TGF-beta-a and iEMT-a cells generated as described in (C). (FIG. 5G) Lung metastasis: cells expanded for 8 passages after cessation of treatment as described in (C) were transformed with RAS; 1.0×10^5 cells were injected into the mammary fat pads of mice; GFP-labeled metastases on the surface of the lungs were quantified; *control vs. all other groups, p<0.05, n=5 mice/group. […]

HTwist cells = test: Boyden chamber migration assay, HTwist cells (single vs combined proteins); conditions: DKK1 1 μg/ml, SFRP1, BMP4 0.5 μg/ml
Procedure: Migration and invasion assays. For migration assays, 2×10^4 cells were seeded into 24-well cell culture inserts with 8-μm pores (Boyden Chambers, BD Falcon). […] After 12-48 hr, the cells on the upper surface of the filters were removed with a cotton swab. For visualization, cells on lower filter surfaces were fixed and stained with a Diff-Quick staining kit (Dade Behring).

HMLE-iEMT-a cells = test: Mammosphere assay, iEMT-cells; conditions: SFRP1 1 μg/ml/d, BMP4 0.5 μg/ml/d; extent comparable to HTwist and MSP cells
Procedure: as §1, with “(FIG. 5D) Immunoblot: EMT markers and associated autocrine pathways, cells generated as described in (C). (FIG. 5E) Migration (Boyden Chamber Assay) and Mammosphere Assay: cells generated as indicated in (C), *control vs. TGF-beta treatment, p<1×10^−4, **control vs. iEMT-treatment, p<1×10^−9, n(migration)=3, n(mammospheres)/1000 cells, n=7. (FIG. 5F) Flow cytometry: CD44 and CD24 cell-surface marker expression in control, TGF-beta-a and iEMT-a cells generated as described in (C).” left out

Molecule: TGF-beta 1: recombinant TGF-beta 1 protein, used at 5 ng/ml
- increase in ability to migrate vs untreated control cells (HMLE^24+ cells; after 14 day treatment): not in motility

B1: SFRP1: Recombinant human SFRP1 protein (R&D Systems), secreted decoy receptor binding canonical and non-canonical Wnt ligands (protein, UniProt Q8N474 32-314, looked up)
Secreted frizzled-related …: SEYDYVSFQSDIGPYQSGRFYTKPPQCVDIPADLRLCHNVGYKKMVLPNLLEHETMAEVKQQASSWVPLLNKNCHAGTQVFLCSLFAPVCLDRPIYPCRWLCEAVRDSCEPVMQFFGFYWPEMLKCDKFPEGDVCIAMTPPNATEASKPQGTTVCPPCDNELKSEAIIEHLCASEFALRMKIKEVKKENGDKKIVPKKKKPLKLGPIKKKDLKKLVLYLKNGADCPCHQLDNLSHHFLIMGRKVKSQYLLTAIHKWDKKNKEFKNFMKKMKNHECPTFQSVFK
- reduction of migration, single vs combined proteins (HTwist cells): 5 fold
- motility of HMLE^24+ cells upon addition of protein (HMLE^24+ cells; 0.5 μg/ml in growth medium): not further reduced
- effect on mammosphere formation of iEMT-cells (HMLE-iEMT-a cells): inhibited

B2: BMP4: Recombinant BMP4 protein obtained from Stemgent (protein, UniProt P12644 293-408, looked up)
Bone morphogenetic protein 4: SPKHHSQRARKKNKNCRRHSLYVDFSDVGWNDWIVAPPGYQAFYCHGDCPFPLADHLNSTNHAIVQTLVNSVNSSIPKACCVPTELSAISMLYLDEYDKVVLKNYQEMVVEGCGCR
- reduction of migration, single vs combined proteins (HTwist cells): 2 fold
- effect on mammosphere formation of iEMT-cells (HMLE-iEMT-a cells): inhibited
